We go through one molecule from patent publication US10961298 (GOVERNMENT OF THE UNITED STATES AS REPRESENTED BY THE …, dated 2021).

Assay [1] has as its target T1, Hcp peptide TSSSVGGHTAERVEH (Acinetobacter baumannii).
T1 peptide: TSSSVGGHTAERVEH
Description: peptide ELISA, peptide on plate, anti-mouse HRP, OD450. Background: An ELISA detects its analyte on a solid surface through an enzyme-linked reagent.

In assay [2] the target is T2, Hcp peptide HTAERVEHSDMVFVK (Acinetobacter baumannii).
T2 peptide: HTAERVEHSDMVFVK
The description is as above.

Assay [3] has as its target T3, Hcp peptide HSDMVFVKDLDATSP (Acinetobacter baumannii).
T3 peptide: HSDMVFVKDLDATSP
Described as above.

Assay [4] addresses T4, Hcp peptide KDLDATSPKLWEACS (Acinetobacter baumannii).
T4 peptide: KDLDATSPKLWEACS
The assay is described as above.

In assay [5] the target is T5, Hcp peptide PKLWEACSAGYTFDE (Acinetobacter baumannii).
T5 peptide: PKLWEACSAGYTFDE
Described as above.

The target of assay [6] is T6, Hcp peptide SAGYTFDEVQIDFYR (Acinetobacter baumannii).
T6 peptide: SAGYTFDEVQIDFYR
Described as above.

For assay [7], the target named is T7, Hcp peptide EVQIDFYRANGDKRI (Acinetobacter baumannii).
T7 peptide: EVQIDFYRANGDKRI
The assay is described as above.

The target in assay [8] is T8, Hcp peptide RANGDKRIKYLQIKL (Acinetobacter baumannii).
T8 peptide: RANGDKRIKYLQIKL
The assay is described as above.

The target in assay [9] is T9, Hcp peptide IKYLQIKLKHVLVSS (Acinetobacter baumannii).
T9 peptide: IKYLQIKLKHVLVSS
Described as above.

In assay [10] the target is T10, Hcp peptide LKHVLVSSVTPTVNE (Acinetobacter baumannii).
T10 peptide: LKHVLVSSVTPTVNE
The description is as above.

Assay [11] deals with T11, Hcp peptide SVTPTVNEEGVPTEA (Acinetobacter baumannii).
T11 peptide: SVTPTVNEEGVPTEA
The assay is described as above.

Assay [12] concerns the target T12, Hcp peptide EEGVPTEAFGLKYAA (Acinetobacter baumannii).
T12 peptide: EEGVPTEAFGLKYAA
The assay is described as above.

The target of assay [13] is T13, Hcp peptide AFGLKYAAVEWTYNQ (Acinetobacter baumannii).
T13 peptide: AFGLKYAAVEWTYNQ
The assay is described as above.

The target in assay [14] is T14, Hcp peptide AVEWTYNQQDINGTA (Acinetobacter baumannii).
T14 peptide: AVEWTYNQQDINGTA
Described as above.

The target of assay [15] is T15, Hcp peptide QQDINGTAKGAVTKK (Acinetobacter baumannii).
T15 peptide: QQDINGTAKGAVTKK
The description is as above.

The target in assay [16] is T16, Hcp peptide AKGAVTKKWSLSNNT (Acinetobacter baumannii).
T16 peptide: AKGAVTKKWSLSNNT
The description is as above.

Assay [17] deals with T17, Hcp peptide KWSLSNNTASYAA (Acinetobacter baumannii).
T17 peptide: KWSLSNNTASYAA
The description is as above.

For assay [18], the target named is T18, Hcp peptide #1 MKDIYVEFRGKYKVD (Acinetobacter baumannii).
T18 construct: also called amino terminus peptide; N-terminus peptide
T18 peptide: MKDIYVEFRGKYKVD
The assay is described as above.

The target in assay [19] is T19, Hcp peptide FRGKYKVDGESRDSE (Acinetobacter baumannii).
T19 peptide: FRGKYKVDGESRDSE
The description is as above.

For assay [20], the target named is T20, Hcp peptide DGESRDSEHKGWLEV (Acinetobacter baumannii).
T20 peptide: DGESRDSEHKGWLEV
The description is as above.

The target of assay [21] is T21, Hcp peptide EHKGWLEVNSWSHN (Acinetobacter baumannii).
T21 peptide: EHKGWLEVNSWSHN
Described as above.

Assay [22] deals with T22, Hcp peptide VNSWSHNIRQPKSAT (Acinetobacter baumannii).
T22 peptide: VNSWSHNIRQPKSAT
The assay is described as above.

For assay [23], the target named is T23, Hcp peptide IRQPKSATSSSVGGH (Acinetobacter baumannii).
T23 peptide: IRQPKSATSSSVGGH
The description is as above.

In assay [24] the target is T24, Hcp (hemolysin co-regulated protein, T6SS needle protein) of Acinetobacter baumannii AB5075, recombinant, … (Acinetobacter baumannii (strain AB5075)).
T24 construct: Cloned NcoI/XhoI into pET22b, overexpressed in E. coli and purified on a nickel column; also called full-length Hcp protein; purified Hcp protein
T24 chain: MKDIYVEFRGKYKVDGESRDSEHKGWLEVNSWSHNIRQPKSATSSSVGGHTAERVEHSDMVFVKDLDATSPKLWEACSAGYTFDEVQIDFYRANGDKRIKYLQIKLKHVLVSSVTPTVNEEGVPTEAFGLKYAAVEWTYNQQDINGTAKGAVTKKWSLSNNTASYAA
In words: screening of hybridoma clones for binding to Hcp antigen.

B1: 13F7 anti-Hcp monoclonal antibody (antibody, V domains shown)
VH: EVQLQESGGGLVQPGGSMKLSCVVSGFIFSSYWMSWVRQSPEKGLEWLAEIRLKSDNYVTLYAESVKGKFTISRDDSKSRLFLQMNTLRAEDTGIYYCTRSYHALDYWGQGTSVTVSS
VL: DIVMAQSPSSLNVSAGDKVTMSCKSSQSLLNSGNQRNYLAWYQQKPGQPPKLLIYGASTRESGVPDRFTGSGSGTDFTLTISSVQAEDLAVYYCQNDHIYPFTFGSGTKLEIK
notes: Mouse monoclonal antibody from a hybridoma; also called αHcp; 13F7 αHcp antibody
For B1, the binding result in assay [1], in assay [2], in assay [3], in assay [4], in [5] and in assay [6] was “no binding” in each case. For the same molecule, the binding result in assay [7], in assay [8], in assay [9], in assay [10], in [11] and in assay [12] was “no binding” each time. The binding result in assay [13] is on record as “no binding”; in assay [14], “no binding”; in [15], “no binding”; in assay [16] it was “no binding”; in assay [17] it was “no binding”; in assay [18], “binds”. In addition, the binding result in [19] is “no binding”; in assay [20], “no binding”; in [21] it was “no binding”; in [22] it was “no binding”; in [23], “no binding”; in [24], “binds”.
